From the supplement of paper PMC9732359
± gives the uncertainty stated by the source.

Assay: protein stability index of a GFP-peptide fusion (yeast GPS) (PSI 1-4); higher = more stable; sorted into four equal gates, so the index is relative within each strain
Procedure, shortened: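 Yeast carrying a pooled library were grown to mid-log phase in leucine-free medium. Each library plasmid expresses Cherry and has a tiled 17-residue yeast protein peptide fused downstream of GFP. Cells were sorted into four equal gates by GFP/Cherry ratio, and plasmids from each gate were PCR-amplified, Illumina-sequenced and assigned to strains by barcode. Summing, across gates, the read frequency times the gate number gave each peptide's protein stability index.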

Sequence | protein stability index (doa10∆) | protein stability index (pdr5∆) | protein stability index (san1∆) | protein stability index (ubr1∆)
TDLEKKHLWDQKSLAAL [RPC17] | 2.86 ± 0.11 | 2.98 ± 0.062 | 2.94 ± 0.081 | 3.02 ± 0.059
TDLESLSSGESNEIKVT [SIR4] | 2.99 ± 0.13 | 2.93 ± 0.11 | 2.69 ± 0.1 | 2.46 ± 0.071
TDNMSGRGLWNPSYPGM [YJL039C/NUP192] | 3.14 ± 0.26 | 3.11 ± 0.18 |  | 2.84 ± 0.26
TDQILQLLKEDSEKRNK [RRP45] | 3.12 ± 0.16 | 3.3 ± 0.29 | 3.52 ± 0.098 | 3.36 ± 0.11
TDRQKKLLGVDMQSSVD [YLR018C/POM34] | 3.2 ± 0.057 | 3.08 ± 0.055 | 3.19 ± 0.043 | 3.15 ± 0.044
TDYARAKNRILASKIKQ [RRI1] | 1.93 ± 0.097 | 2.07 ± 0.072 | 1.94 ± 0.091 | 1.91 ± 0.063
TEDIREGDQAEVIFSFE [YMR129W/POM152] | 3.47 ± 0.087 | 3.39 ± 0.072 | 3.19 ± 0.066 | 3.44 ± 0.071
TEEPDLAIADVETKLET [DSN1] | 3.2 ± 0.12 | 3.35 ± 0.11 | 2.48 ± 0.097 | 3.5 ± 0.14
TEGCIGLSQTEAFGNIK [MCD1] | 2.61 ± 0.058 | 2.61 ± 0.076 | 2.81 ± 0.093 | 2.56 ± 0.072
TEISPMAGSQFENGNIT [RRP45] | 2.6 ± 0.063 | 2.5 ± 0.05 | 2.86 ± 0.058 | 2.71 ± 0.062
TEKQRKKQIAFPQRKYA [RPL35A] | 1.16 ± 0.062 | 1.44 ± 0.096 | 1.13 ± 0.21 | 1.15 ± 0.08
TELASKDNAIYNGFIDI [YCS4] | 1.42 ± 0.072 | 1.68 ± 0.071 | 1.09 ± 0.14 | 1.48 ± 0.05
TELLDEFIAAVNNPQEE [RPN10] | 3.01 ± 0.17 | 3.17 ± 0.14 | 3.08 ± 0.064 | 2.83 ± 0.15
TENEIPNLIEKMVAKGL [BRR2] | 2.85 ± 0.17 | 2.81 ± 0.13 | 2.63 ± 0.093 | 2.78 ± 0.11
TERHIQVGDGLEILIVT [PRE7] | 2.05 ± 0.067 | 1.97 ± 0.07 | 2.63 ± 0.11 | 3.12 ± 0.065
TFDSSWNWAKQSLLSLY [FAS2] | 1.47 ± 0.066 | 1.3 ± 0.058 | 2.08 ± 0.15 | 1.58 ± 0.073
TFSPSGKLGQIDYALTA [PRE8] | 2.61 ± 0.14 | 2.26 ± 0.092 | 2.67 ± 0.12 | 2.85 ± 0.064
TFSQESGLMVILYTSKI [RRI2] | 2.78 ± 0.076 | 3.05 ± 0.084 | 2.6 ± 0.085 | 2.94 ± 0.053
TFSSSISTYISTDELVG [POP8] | 3.02 ± 0.087 | 2.93 ± 0.057 | 2.9 ± 0.072 | 3.02 ± 0.069
TFVHVTDLSGKETIARV [RPS14A] | 2.89 ± 0.069 | 2.82 ± 0.073 | 2.84 ± 0.05 | 2.4 ± 0.055
TFVPTNSDKPRDVYVFD [DIS3] | 3 ± 0.062 | 2.93 ± 0.071 | 3.11 ± 0.064 | 3 ± 0.059
TGAGVDVNTNANANANA [SNF11] | 3.12 ± 0.074 | 3.31 ± 0.07 | 3.19 ± 0.045 | 3.34 ± 0.051

Sequence | protein stability index (doa10∆) | protein stability index (pdr5∆) | protein stability index (san1∆) | protein stability index (ubr1∆)
TGDVLLIQDLLHRLTPK [RPN1] | 3.12 ± 0.07 | 3.03 ± 0.061 | 3.01 ± 0.062 | 2.8 ± 0.059
TGESWVKLTYNSPSSAL [YDL088C/ASM4] | 2.31 ± 0.058 | 1.75 ± 0.055 | 2.08 ± 0.067 | 2.02 ± 0.04
TGHLFLKIIHTSVWAGQ [PRP8] | 1.31 ± 0.06 | 1.31 ± 0.056 | 1.19 ± 0.097 | 1.28 ± 0.051
TGKDCVAIACDLRLGSQ [PUP3] | 1.38 ± 0.088 | 1.48 ± 0.092 | 2.32 ± 0.064 | 2.7 ± 0.061
TGLHFGRLSLRSLTAYA [QCR10] | 1.22 ± 0.044 | 1.5 ± 0.059 | 1.39 ± 0.095 | 1.65 ± 0.055
TGLSQIPNRRFTLWWSP [PRP8] | 3.04 ± 0.058 | 2.78 ± 0.056 | 1.87 ± 0.048 | 2.52 ± 0.042
TGLVSIRGKILTGTVVS [RPS11A] | 2.45 ± 0.052 | 2.75 ± 0.053 | 2.58 ± 0.053 | 2.89 ± 0.038
TGPIEPKARQELPTQLA [RRP46] | 2.82 ± 0.072 | 2.79 ± 0.074 | 3.21 ± 0.089 | 3.04 ± 0.056
TGPKQQEITTNLENHFK [SCL1] | 2.94 ± 0.044 | 2.97 ± 0.037 | 3.04 ± 0.032 | 2.9 ± 0.03
THAVGNNCEDFVSRPDR [FAS1] | 3.16 ± 0.12 | 3.08 ± 0.18 | 2.97 ± 0.072 | 3.04 ± 0.087
THNDIDSTAVALEEGLN [YJL039C/NUP192] | 2.78 ± 0.096 | 3.05 ± 0.047 | 2.53 ± 0.082 | 2.56 ± 0.06
THNSYEKACQVLKYMLL [RPN6] | 2.18 ± 0.076 | 2.44 ± 0.073 | 2.23 ± 0.087 | 3.26 ± 0.071
THSQTGTQQSNMYTSTQ [SIR4] | 3.03 ± 0.061 | 3.16 ± 0.046 | 2.93 ± 0.051 | 3.08 ± 0.055
TICIELKTVLHNGRDKI [RGR1] | 1.55 ± 0.051 | 1.62 ± 0.062 | 1.78 ± 0.085 | 1.78 ± 0.067
TIDNIDSENFSFEKLYE [YMR129W/POM152] | 3.3 ± 0.085 | 3.26 ± 0.076 | 3.33 ± 0.074 | 3.17 ± 0.047
TIGKRRTTTNTTAEPKA [TAF14] | 3.07 ± 0.064 | 3.26 ± 0.042 | 3.15 ± 0.045 | 3.2 ± 0.05
TISECNLYDDVKCWSKF [MED1] | 2.27 ± 0.093 | 2.34 ± 0.2 | 3.38 ± 0.071 | 3.14 ± 0.12
TISQALLNAADRDALSG [PUP3] | 2.82 ± 0.12 | 2.11 ± 0.097 | 1.95 ± 0.17 | 1.95 ± 0.068
TISSADFIQNVGRLWDQ [ECM29] | 2.98 ± 0.15 | 3.5 ± 0.14 | 3.39 ± 0.083 | 3.42 ± 0.061
TIVQLCKKKEMSQYQST [YIL149C/MLP2] | 1.88 ± 0.063 | 2.14 ± 0.061 | 1.76 ± 0.091 | 1.8 ± 0.052
TIVSNVEEKPGDRGALA [RPL2A] | 3.16 ± 0.095 | 3.1 ± 0.075 | 3.37 ± 0.058 | 3.4 ± 0.12
TKDPDEQQLFEIFAFGN [CSN9] | 3.18 ± 0.13 | 3.09 ± 0.088 | 3.17 ± 0.052 | 2.83 ± 0.053
